This is an account of results in US20210238283A1 (Y BIOLOGICS, published 2021).

The target of assay [1] is T1, human LAG-3 overexpressed on cells (human, UniProt P18627 23-525).
T1 sequence (looked up): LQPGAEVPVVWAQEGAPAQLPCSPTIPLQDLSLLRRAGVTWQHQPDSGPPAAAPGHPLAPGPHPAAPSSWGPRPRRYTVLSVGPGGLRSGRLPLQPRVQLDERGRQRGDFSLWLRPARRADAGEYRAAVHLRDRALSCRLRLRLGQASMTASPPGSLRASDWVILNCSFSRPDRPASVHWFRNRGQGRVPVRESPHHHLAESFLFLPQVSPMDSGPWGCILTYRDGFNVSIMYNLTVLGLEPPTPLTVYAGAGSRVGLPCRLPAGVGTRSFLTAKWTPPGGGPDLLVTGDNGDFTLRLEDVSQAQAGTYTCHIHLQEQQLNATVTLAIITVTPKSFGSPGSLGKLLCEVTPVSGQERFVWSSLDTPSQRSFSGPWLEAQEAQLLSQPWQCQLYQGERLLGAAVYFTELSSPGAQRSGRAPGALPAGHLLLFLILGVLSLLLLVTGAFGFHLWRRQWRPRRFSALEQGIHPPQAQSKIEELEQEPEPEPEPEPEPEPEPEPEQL
The assay can be described thus: cell-based or functional assay.

In assay [2] the target is T2, mouse LAG-3 overexpressed on HEK293E cells (mouse, UniProt Q61790 24-521).
T2 construct: whole, on cells; also called HEK293E-mLAG3; mLAG3 (Mouse)
T2 sequence (looked up): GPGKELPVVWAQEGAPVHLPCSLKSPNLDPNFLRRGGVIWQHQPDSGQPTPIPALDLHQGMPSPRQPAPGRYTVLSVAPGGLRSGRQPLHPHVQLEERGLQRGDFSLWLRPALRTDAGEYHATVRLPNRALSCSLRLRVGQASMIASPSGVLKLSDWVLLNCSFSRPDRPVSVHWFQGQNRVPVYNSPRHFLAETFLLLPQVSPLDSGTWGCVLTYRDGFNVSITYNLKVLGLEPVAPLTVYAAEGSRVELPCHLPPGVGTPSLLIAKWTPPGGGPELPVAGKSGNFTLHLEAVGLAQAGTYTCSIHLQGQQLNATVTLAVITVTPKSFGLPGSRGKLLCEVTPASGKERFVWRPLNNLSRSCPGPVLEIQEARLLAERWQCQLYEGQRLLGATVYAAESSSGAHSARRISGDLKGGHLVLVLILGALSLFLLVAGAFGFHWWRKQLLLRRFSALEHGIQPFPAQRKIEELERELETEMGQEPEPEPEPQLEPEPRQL
The assay can be described thus: flow cytometry, HEK293E cells overexpressing mouse LAG-3. The method, then:
(§1) After that, the cells were washed three times with PBS containing 2% FBS and then subjected to the reaction for 30 minutes at 4° C. with anti-human IgG antibody (#FI-3000, Vectorlabs) linked with FITC fluorescent. The cells were washed by the same washing process as above followed by suspension in 0.2 ml PBS containing 2% FBS. The cells were then analyzed by FACSCanto II flow cytometer.

The target in assay [3] is T3, recombinant human LAG-3-his (#16498-H08H, Sino Biological Inc.) (human, UniProt P18627 23-450).
T3 construct: Bought; also called LAG-3-His (WT); not shown: His tag at the carboxy terminal
T3 sequence (looked up): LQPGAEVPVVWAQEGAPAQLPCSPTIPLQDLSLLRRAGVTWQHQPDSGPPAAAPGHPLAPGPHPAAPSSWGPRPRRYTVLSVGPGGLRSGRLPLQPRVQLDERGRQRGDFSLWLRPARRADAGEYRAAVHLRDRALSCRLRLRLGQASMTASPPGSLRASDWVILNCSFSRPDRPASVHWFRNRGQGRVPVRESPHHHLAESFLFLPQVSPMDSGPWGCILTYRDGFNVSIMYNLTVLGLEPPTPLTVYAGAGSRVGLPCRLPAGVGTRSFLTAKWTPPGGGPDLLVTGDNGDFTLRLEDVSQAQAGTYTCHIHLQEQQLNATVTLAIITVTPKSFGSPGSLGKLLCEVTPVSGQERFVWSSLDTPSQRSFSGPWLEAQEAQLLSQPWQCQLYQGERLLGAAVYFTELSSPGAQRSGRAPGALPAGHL
The experiment in a line: scFv phage ELISA on coated antigen, A490. On the technique in general: ELISA stands for enzyme-linked immunosorbent assay.

Assay [4] concerns the target T1, human LAG-3 overexpressed on cells. The assay can be described thus: flow cytometry, HEK293E cells overexpressing LAG-3, antibody 2 µg/ml. Here is the method:
as §1
Background: In flow cytometry, cells or beads pass a laser one at a time.

The target of assay [5] is T2, mouse LAG-3 overexpressed on HEK293E …. Described as above. Here is the method:
as §1

Assay [6] concerns the target T3, recombinant human LAG-3-his …. The assay can be described thus: scFv phage ELISA on coated antigen, A490. This is another data set of the same source.

Where two headings read alike, the source gives them in different places.

B1: LAG3-1E09_AM_1F09 (antibody, V domains shown)
VH: EVQLVESGGDLVKPGGSLRLSCAASGFNFSDHYMNWIRQAPGKGLEWVAYIDTSATYIYYADSVKGRFTISRDNAKNSLYLQMNSLRAEDTAVYYCARDNWGSLDYWGQGTLVTVSS
VL: DIQMTQSPSSLSASVGDRVTITCQASQDIRNYLGWYQQKPGKAPNLLIYDASTLETGVPSRFSGSGSGTDFTLAISSLQPEDFATYYCQQSYSTPYTFGQGTKLEIK
notes: Tested as full IgG
In the case of B1, the “EC50 (µg/ml), LAG3/MHC class II Blockade bioassay” value in assay [1] was 0.488 µg/mL. Moreover, the binding result in assay [2] is recorded as “no binding (tested: 2 µg/ml)”.

B2: LAG3-1E09_AM_1H07 (antibody, V domains shown)
VH: EVQLVESGGDLVQPGGSLRLSCAASGFSFNDHYMNWVRQAPGKGLEWVAYIDTSATYIYYADSVKGRFTISRDNAKNSLYLQMNSLRAEDTAVYYCARDNWGSLDYWGQGTLVTVSS
VL: DIQMTQSPSSLSASVGDRVTITCQASQDISNYLNWYQQKPGKAPKLLIYEASSLESGVPSRFSGSGSGTEFTLTINSLQPEDFATYYCQQSYSTPFAFGPGTKVEIK
notes: Tested as full IgG
For the molecule B2, the “EC50 (µg/ml), LAG3/MHC class II Blockade bioassay” value in assay [1] came to 0.448 µg/mL. Also, the binding result in assay [2] was “no binding (tested: 2 µg/ml)”.

B3: LAG3-1E09_FR_1E10 (antibody, V domains shown)
VH: EVQLVESGGGLVKPGGSLRLSCAASGFSFSDHYMNWVRQAPGKGLEWVAYIDTSATYIYYADSVKGRFTISRDNAKNSLYLQMNSLRAEDTAVYYCARDNWGSLDYWGQGTLVTVSS
VL: DIQMTQSPSSLSASVGDRVIITCQASQDITNYLNWYQQKPGKAPKLLIYDASNLETGVPSRFTGSGSGTDFTFTISSLQPEDIATYHCQQSYSTPPYTFGQGTKLEIK
notes: Tested as full IgG
Consider B3, for which the binding result in assay [3], in assay [4] and in assay [5] was “binds” in each case.

B4: LAG3-1E09_AM_1E09 (antibody, V domains shown)
VH: EVQLVESGGDLVKPGGSLRLSCAASGFSFSDHYMNWIRQAPGKGLEWVAYIDTSATYIYYADSVKGRFTISRDNAKNSLYLQMNSLRAEDTAVYYCARDNWGSLDYWGQGTLVTVSS
VL: DIQMTQSPATLSVSPGERATLSCRASQSVMNNLAWYQQKPGQAPRLLIYDASNRATGIPARFSGSGSGTDFTLTISRLEPEDFAVYYCEQYVRSPYTFGQGTKLDIK
notes: Tested as full IgG
With B4, the results for the binding result in assay [2] and in assay [4] were “no binding (tested: 2 µg/ml)” and “binds”, respectively.

B5: LAG3-1E09_AM_1B03 (antibody, V domains shown)
VH: EVQLVESGGDLVQPGGSLRLSCAASGFSFNDHYMNWIRQAPGKGLEWVAYIDTSATYIYYADSVKGRFTISRDNAKNSLYLQMNSLRAEDTAVYYCARDNWGSLDYWGQGTLVTVSS
VL: DIQMTQSPSSLSASVGDRVTMTCQASQDVSNYLNWYQQKPGKAPKLLIYDASNLEIGVPSRFSGSGSGTDFTFTISSLQPEDTATYYCQQYDHLPPYTFGQGTKLEIK
notes: Tested as full IgG
With B5, the “EC50 (µg/ml), LAG3/MHC class II Blockade bioassay” value in assay [1] amounted to 1.82 µg/mL. The binding result in assay [2] is on record as “no binding (tested: 2 µg/ml)”.

B6: LAG3-1E09_FR_1A06 (antibody, V domains shown)
VH: EVQLVESGGGLVKPGGSLRLSCAASGFSFSDHYMNWVRQAPGKGLEWVAYIDTSATYIYYADSVKGRFTISRDNAKNSLYLQMNSLRAEDTAVYYCARDNWGSLDYWGQGTLVTVSS
VL: DIQMTQSPGTLSMSPGEKATLSCRASQTVTTNLAWYQQKSGQAPRLLIYDASTRATGVPDRFSGSGSGTDFTLTISRLEPEDFAVYYCQQYGSSPYTFGQGTKLDIK
notes: Tested as full IgG
As to B6, the binding result in assay [2] is “no binding (tested: 2 µg/ml)”; in assay [4], “binds”.

B7: LAG3-1E09_LS_1H04 (antibody, V domains shown)
VH: EVQLVESGGDLVKPGGSLRLSCAASGFSFSDHYMNWIRQAPGKGLEWVAYIDTSATYIYYADSVKGRFTISRDNAKNSLYLQMNSLRAEDTAVYYCARDNWGSLDYWGQGTLVTVSS
VL: DIQMTQSPSSLSASAGDRVTITCQASQDIRNSLSWYQQKPGKAPKLLIYDASNLETGVPSRFSGSGSGTYFTFTISSLQPEDFATYYCQQYDNVPVTFGGGTKLEIK
notes: Tested as full IgG
B7: the “EC50 (µg/ml), LAG3/MHC class II Blockade bioassay” value in assay [1] is 0.284 µg/mL. Further, the binding result in assay [2] was “no binding (tested: 2 µg/ml)”.

B8: LAG3-1E09_FR_1E09 (antibody, V domains shown)
VH: EVQLVESGGGLVKPGGSLRLSCAASGFSFSDHYMNWIRQAPGKGLEWVAYIDTSATYIYYADSVKGRFTISRDNAKNSLYLQMNSLRAEDTAVYYCARDNWGSLDYWGQGTLVTVSS
VL: DIQMTQSPSSLSASVGDRVTITCQASQDISNYLNWYQQKPGKAPNLLIYDASNLETGVPSRFSGSGSGTDFALTISSLQPEDFATYYCQQSDSTPITFGQGTRLDIK
notes: Tested as full IgG
B8: the figures for the binding result in assay [3], in assay [2] and in assay [4] were “binds”, “no binding (tested: 2 µg/ml)” and “binds”, respectively.

B9: LAG3-1E09_LS_1A10 (antibody, V domains shown)
VH: EVQLVESGGDLVKPGGSLRLSCAASGFSFSDHYMNWIRQAPGKGLEWVAYIDTSATYIYYADSVKGRFTISRDNAKNSLYLQMNSLRAEDTAVYYCARDNWGSLDYWGQGTLVTVSS
VL: not shown
notes: Tested as full IgG
As to B9, the values for the binding result in assay [2] and in assay [4] were “no binding (tested: 2 µg/ml)” and “binds”, respectively.

B10: LAG3-1E09_AM_2E04 (antibody, V domains shown)
VH: EVQLVESGGDLVKPGGSLRLSCAASGFSFNDHYMNWVRQAPGKGLEWVAYIDTSATYIYYADSVKGRFTISRDNAKNSLYLQMNSLRAEDTAVYYCARDNWGSLDYWGQGTLVTVSS
VL: DIQMTQSPSSLSASVGDRVTIICRASQSISNYLNWYQQEPGKAPKLLIYDASNLESGVPSRFSGSGSGTDFTLTISSLQPEDFATYYCQQSYSTPYTFGQGTKVEIK
notes: Tested as full IgG
On to B10, for which the results for the binding result in assay [6], in assay [2] and in assay [4] were “binds”, “no binding (tested: 2 µg/ml)” and “binds”, respectively.
